Laboratory results taken from the supplement of paper PMC11316812.
± gives the standard deviation of the averaged measurements.

Columns and labels:
[1] = test system: hTERT-HMEC; experiment: percentage of EdU-negative (G0-arrested) nuclei per well, 72 h; higher = more G0 arrest; conditions: reference: sequence is the full UniProt precursor, the tested protein was the secreted form or ectodomain
[2] = test system: MCF7; experiment: as above; conditions: reference: sequence is the full UniProt precursor, the tested protein was the secreted form or ectodomain
[3] = protein concentration 0.0225 µM
[4] = protein concentration 0.03125 µM
[5] = protein concentration 0.3125 µM
[6] = protein concentration 0.0251975 µM
[7] = protein concentration 0.251975 µM
[8] = protein concentration 0.0131429 µM
[9] = protein concentration 0.131429 µM
[10] = protein concentration 0.028295 µM
[11] = protein concentration 0.28295 µM
[12] = protein concentration 0.0257143 µM
[13] = protein concentration 0.257143 µM
[14] = protein concentration 0.0357143 µM
[15] = protein concentration 0.357143 µM
[16] = protein concentration 0.023905 µM
[17] = protein concentration 0.23905 µM
[18] = protein concentration 0.0128525 µM
[19] = protein concentration 0.128525 µM
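Also: secreted proteins added to cultured cells, EdU pulse at the end, nuclei found by Hoechst imaging, EdU status from nuclear versus surrounding ring intensity ratio, PBS as neutral control.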

MAPARAGCCPLLLLLLGLWVAEVLVRAKPKDMTSSQWFKTQHVQPSPQACNSAMSIINKYTERCKDLNTFLHEPFSSVAITCQTPNIACKNSCKNCHQSHGPMSLTMGELTSGKYPNCRYKEKHLNTPYIVACDPPQQGDPGYPLVPVHLDKVV [Q8TDE3]
percentage of EdU-negative [1, 3]: 5.33 ± 0.52% | percentage of EdU-negative ([1]; protein concentration 0.225 µM): 5.09 ± 1.2% | percentage of EdU-negative [2, 3]: 28.2 ± 0.91% | percentage of EdU-negative ([2]; protein concentration 0.225 µM): 27.5 ± 4.3%

MAPARAGFCPLLLLLLLGLWVAEIPVSAKPKGMTSSQWFKIQHMQPSPQACNSAMKNINKHTKRCKDLNTFLHEPFSSVAATCQTPKIACKNGDKNCHQSHGAVSLTMCKLTSGKHPNCRYKEKRQNKSYVVACKPPQKKDSQQFHLVPVHLDRVL [Q9H1E1]
percentage of EdU-negative [1, 4]: 4.51 ± 0.69% | percentage of EdU-negative [1, 5]: 6.66 ± 0.32% | percentage of EdU-negative [2, 4]: 24.6 ± 0.7% | percentage of EdU-negative [2, 5]: 26 ± 3.1%

MAPGSRTSLLLAFALLCLPWLQEAGAVQTVPLSRLFDHAMLQAHRAHQLAIDTYQEFEETYIPKDQKYSFLHDSQTSFCFSDSIPTPSNMEETQQKSNLELLRISLLLIESWLEPVRFLRSMFANNLVYDTSDSDDYHLLKDLEEGIQTLMGRLEDGSRRTGQILKQTYSKFDTNSHNHDALLKNYGLLYCFRKDMDKVETFLRMVQCRSVEGSCGF [P0DML2]
percentage of EdU-negative [1, 4]: 5.53 ± 0.26% | percentage of EdU-negative [1, 5]: 6.34 ± 1.3% | percentage of EdU-negative [2, 4]: 28.31 ± 0.052% | percentage of EdU-negative [2, 5]: 25.8 ± 0.31%

MAPISLSWLLRLATFCHLTVLLAGQHHGVTKCNITCSKMTSKIPVALLIHYQQNQASCGKRAIILETRQHRLFCADPKEQWVKDAMQHLDRQAAALTRNGGTFEKQIGEVKPRTTPAAGGMDESVVLEPEATGESSSLEPTPSSQEAQRALGTSPELPTGVTGSSGTRLPPTPKAQDGGPVGTELFRVPPVSTAATWQSSAPHQPGPSLWAEAKTSEAPSTQDPSTQASTASSPAPEENAPSEGQRVWGQGQSPRPENSLEREEMGPVPAHTDAFQDWGPGSMAHVSVVPVSSEGTPSREPVASGSWTPKAEEPIHATMDPQRLGVLITPVPDAQAATRRQAVGLLAFLGLLFCLGVAMFTYQSLQGCPRKMAGEMAEGLRYIPRSCGSNSYVLVPV
percentage of EdU-negative [1, 3]: 4.91 ± 0.028% | percentage of EdU-negative ([1]; protein concentration 0.225 µM): 5.92 ± 0.33% | percentage of EdU-negative [2, 3]: 24.7 ± 2.4% | percentage of EdU-negative ([2]; protein concentration 0.225 µM): 25.18 ± 0.043%

MAPLKMLALVTLLLGASLQHIHAARGTNVGRECCLEYFKGAIPLRKLKTWYQTSEDCSRDAIVFVTVQGRAICSDPNNKRVKNAVKYLQSLERS
percentage of EdU-negative [1, 6]: 5.05 ± 1.6% | percentage of EdU-negative [1, 7]: 5.85 ± 0.93% | percentage of EdU-negative [2, 6]: 26 ± 0.51% | percentage of EdU-negative [2, 7]: 25.9 ± 0.28%

MAPLRPLLILALLAWVALADQESCKGRCTEGFNVDKKCQCDELCSYYQSCCTDYTAECKPQVTRGDVFTMPEDEYTVYDDGEEKNNATVHEQVGGPSLTSDLQAQSKGNPEQTPVLKPEEEAPAPEVGASKPEGIDSRPETLHPGRPQPPAEEELCSGKPFDAFTDLKNGSLFAFRGQYCYELDEKAVRPGYPKLIRDVWGIEGPIDAAFTRINCQGKTYLFKGSQYWRFEDGVLDPDYPRNISDGFDGIPDNVDAALALPAHSYSGRERVYFFKGKQYWEYQFQHQPSQEECEGSSLSAVFEHFAMMQRDSWEDIFELLFWGRTSAGTRQPQFISRDWHGVPGQVDAAMAGRIYISGMAPRPSLAKKQRFRHRNRKGYRSQRGHSRGRNQNSRRPSRATWLSLFSSEESNLGANNYDDYRMDWLVPATCEPIQSVFFFSGDKYYRVNLRTRRVDTVDPPYPRSIAQYWLGCPAPGHL
percentage of EdU-negative [1, 3]: 5.37 ± 0.14% | percentage of EdU-negative ([1]; protein concentration 0.225 µM): 4.7 ± 1.1% | percentage of EdU-negative [2, 3]: 25.1 ± 3.1% | percentage of EdU-negative ([2]; protein concentration 0.225 µM): 31.11 ± 0.19%

MAPPLRPLARLRPPGMLLRALLLLLLLSPLPGVWCFSELSFVKEPQDVTVTRKDPVVLDCQAHGEVPIKVTWLKNGAKMSENKRIEVLSNGSLYISEVEGRRGEQSDEGFYQCLAMNKYGAILSQKAHLALSTISAFEVQPISTEVHEGGVARFACKISSHPPAVITWEFNRTTLPMTMDRITALPTGVLQIYDVSQRDSGNYRCIAATVAHRRKSMEASLTVIPAKESKSFHTPTIIAGPQNITTSLHQTVVLECMATGNPKPIISWSRLDHKSIDVFNTRVLGNGNLMISDVRLQHAGVYVCRATTPGTRNFTVAMATLTVLAPPSFVEWPESLTRPRAGTARFVCQAEGIPSPKMSWLKNGRKIHSNGRIKMYNSKLVINQIIPEDDAIYQCMAENSQGSILSRARLTVVMSEDRPSAPYNVHAETMSSSAILLAWERPLYNSDKVIAYSVHYMKAEGLNNEEYQVVIGNDTTHYIIDDLEPASNYTFYIVAYMPMGASQMSDHVTQNTLEDVPLRPPEISLTSRSPTDILISWLPIPAKYRRGQVVLYRLSFRLSTENSIQVLELPGTTHEYLLEGLKPDSVYLVRITAATRVGLGESSVWTSHRTPKATSVKAPKSPELHLEPLNCTTISVRWQQDVEDTAAIQGYKLYYKEEGQQENGPIFLDTKDLLYTLSGLDPRRKYHVRLLAYNNIDDGYQADQTVSTPGCVSVRDRMVPPPPPPHHLYAKANTSSSIFLHWRRPAFTAAQIINYTIRCNPVGLQNASLVLYLQTSETHMLVQGLEPNTKYEFAVRLHVDQLSSPWSPVVYHSTLPEAPAGPPVGVKVTLIEDDTALVSWKPPDGPETVVTRYTILYASRKAWIAGEWQVLHREGAITMALLENLVAGNVYIVKISASNEVGEGPFSNSVELAVLPKETSESNQRPKRLDSADAKVYSGYYHLDQKSMTGIAVGVGIALTCILICVLILIYRSKARKSSASKTAQNGTQQLPRTSASLASGNEVGKNLEGAVGNEESLMPMIMPNSFIDAKGGTDLIINSYGPIIKNNSKKKWFFFQDSKKIQVEQPQRRFTPAVCFYQPGTTVLISDEDSPSSPGQTTSFSRPFGVAADTEHSANSEGSHETGDSGRFSHESNDEIHLSSVISTTPPNL [Q2VWP7]
percentage of EdU-negative [1, 8]: 4.73 ± 0.2% | percentage of EdU-negative [1, 9]: 5.16 ± 0.39% | percentage of EdU-negative [2, 8]: 25.8 ± 0.61% | percentage of EdU-negative [2, 9]: 25.2 ± 1.5%

MAPPQVLAFGLLLAAATATFAAAQEECVCENYKLAVNCFVNNNRQCQCTSVGAQNTVICSKLAAKCLVMKAEMNGSKLGRRAKPEGALQNNDGLYDPDCDESGLFKAKQCNGTSMCWCVNTAGVRRTDKDTEITCSERVRTYWIIIELKHKAREKPYDSKSLRTALQKEITTRYQLDPKFITSILYENNVITIDLVQNSSQKTQNDVDIADVAYYFEKDVKGESLFHSKKMDLTVNGEQLDLDPGQTLIYYVDEKAPEFSMQGLKAGVIAVIVVVVIAVVAGIVVLVISRKKRMAKYEKAEIKEMGEMHRELNA
percentage of EdU-negative [1, 10]: 4.24 ± 0.27% | percentage of EdU-negative [1, 11]: 7.81 ± 1.4% | percentage of EdU-negative [2, 10]: 26.6 ± 1.3% | percentage of EdU-negative [2, 11]: 26.1 ± 0.38%

MAPPSVPLVLLLVLLLSLAETPASAPAHRGRGGWTLNSAGYLLGPVLHLPQMGDQDGKRETALEILDLWKAIDGLPYSHPPQPSKRNVMETFAKPEIGDLGMLSMKIPKEEDVLKS [Q9UBC7]
percentage of EdU-negative [1, 12]: 5.31 ± 1.9% | percentage of EdU-negative [1, 13]: 6.11 ± 0.2% | percentage of EdU-negative [2, 12]: 25.7 ± 2.2% | percentage of EdU-negative [2, 13]: 27.5 ± 3%

MAPRARRRRPLFALLLLCALLARLQVALQIAPPCTSEKHYEHLGRCCNKCEPGKYMSSKCTTTSDSVCLPCGPDEYLDSWNEEDKCLLHKVCDTGKALVAVVAGNSTTPRRCACTAGYHWSQDCECCRRNTECAPGLGAQHPLQLNKDTVCKPCLAGYFSDAFSSTDKCRPWTNCTFLGKRVEHHGTEKSDAVCSSSLPARKPPNEPHVYLPGLIILLLFASVALVAAIIFGVCYRKKGKALTANLWHWINEACGRLSGDKESSGDSCVSTHTANFGQQGACEGVLLLTLEEKTFPEDMCYPDQGGVCQGTCVGGGPYAQGEDARMLSLVSKTEIEEDSFRQMPTEDEYMDRPSQPTDQLLFLTEPGSKSTPPFSEPLEVGENDSLSQCFTGTQSTVGSESCNCTEPLCRTDWTPMSSENYLQKEVDSGHCPHWAASPSPNWADVCTGCRNPPGEDCEPLVGSPKRGPLPQCAYGMGLPPEEEASRTEARDQPEDGADGRLPSSARAGAGSGSSPGGQSPASGNVTGNSNSTFISSGQVMNFKGDIIVVYVSQTSQEGAAAAAEPMGRPVQEETLARRDSFAGNGPRFPDPCGGPEGLREPEKASRPVQEQGGAKA [Q9Y6Q6]
percentage of EdU-negative [1, 3]: 5.19 ± 0.68% | percentage of EdU-negative ([1]; protein concentration 0.225 µM): 5.83 ± 0.025% | percentage of EdU-negative [2, 3]: 24 ± 1.9% | percentage of EdU-negative ([2]; protein concentration 0.225 µM): 25.6 ± 1.8%

MAPRGCIVAVFAIFCISRLLCSHGAPVAPMTPYLMLCQPHKRCGDKFYDPLQHCCYDDAVVPLARTQTCGNCTFRVCFEQCCPWTFMVKLINQNCDSARTSDDRLCRSVS [Q6UW32]
percentage of EdU-negative [1, 14]: 4.73 ± 0.98% | percentage of EdU-negative [1, 15]: 5.65 ± 1.1% | percentage of EdU-negative [2, 14]: 24.2 ± 1.9% | percentage of EdU-negative [2, 15]: 25.5 ± 0.59%

MAPRRARGCRTLGLPALLLLLLLRPPATRGITCPPPMSVEHADIWVKSYSLYSRERYICNSGFKRKAGTSSLTECVLNKATNVAHWTTPSLKCIRDPALVHQRPAPPSTVTTAGVTPQPESLSPSGKEPAASSPSSNNTAATTAAIVPGSQLMPSKSPSTGTTEISSHESSHGTPSQTTAKNWELTASASHQPPGVYPQGHSDTTVAISTSTVLLCGLSAVSLLACYLKSRQTPPLASVEMEAMEALPVTWGTSSRDEDLENCSHHL
percentage of EdU-negative [1, 16]: 5.18 ± 0.25% | percentage of EdU-negative [1, 17]: 6.6 ± 0.68% | percentage of EdU-negative [2, 16]: 27.1 ± 0.76% | percentage of EdU-negative [2, 17]: 25.6 ± 2.6%

MAPRRVRSFLRGLPALLLLLLFLGPWPAASHGGKYSREKNQPKPSPKRESGEEFRMEKLNQLWEKAQRLHLPPVRLAELHADLKIQERDELAWKKLKLDGLDEDGEKEARLIRNLNVILAKYGLDGKKDARQVTSNSLSGTQEDGLDDPRLEKLWHKAKTSGKFSGEELDKLWREFLHHKEKVHEYNVLLETLSRTEEIHENVISPSDLSDIKGSVLHSRHTELKEKLRSINQGLDRLRRVSHQGYSTEAEFEEPRVIDLWDLAQSANLTDKELEAFREELKHFEAKIEKHNHYQKQLEIAHEKLRHAESVGDGERVSRSREKHALLEGRTKELGYTVKKHLQDLSGRISRARHNEL
percentage of EdU-negative [1, 18]: 4.97 ± 0.51% | percentage of EdU-negative [1, 19]: 6.45 ± 0.82% | percentage of EdU-negative [2, 18]: 24.3 ± 0.53% | percentage of EdU-negative [2, 19]: 26.4 ± 1.4%
